Assay [1] concerns the target T1, HER2-ECD-Fc (human, UniProt P04626 23-652).
T1 construct: extracellular domain; Produced in FreeStyle 293F cells; also called HER2-ECD Fc fusion protein
Put plainly: ELISA on HER2-ECD-Fc; antibody at 5 × 10^-3 µg/mL.

For assay [2], the target named is T1, HER2-ECD-Fc. Put plainly: ELISA on HER2-ECD-Fc; antibody at 50 µg/mL. On the technique in general: ELISA stands for enzyme-linked immunosorbent assay.
The target in assay [3] is T1, HER2-ECD-Fc. Put plainly: ELISA on HER2-ECD-Fc; antibody at 5 × 10^-1 µg/mL.
Assay [4] has as its target T2, HER2-ECD DI Fc (human, UniProt P04626 23-217, limits assumed).
T2 construct: domain: domain 1; also called domain 1 of the extracellular domains of the HER2 protein; not shown: Hinge and Fc region (CH2-CH3) of human IgG1, at the C-terminus
Put plainly: ELISA on plate-coated HER2 domain-Fc fusion (1 µg/mL), anti-human IgG-HRP, Abs 450 nm; antibody concentration not given. As for the experimental part:
(§1) The HER2-ECD DI Fc, HER2-ECD DII Fc, HER2-ECD DIII Fc, HER2-ECD DIV Fc and HER2-ECD Fc fusion proteins were immobilized at 4° C. overnight onto a Costar 96-well plate (Corning, Cat. No. 3590) at a concentration of 1 μg/mL […]. The resultant was washed 3 times with TBS-T (0.05% Triton X-100) and then blocked at room temperature for 1 hour with 100 μL of TBS-T/BSA (5% BSA). After washing the blocked plate 3 times and adding the anti-HER2 antibody, the antibody was allowed to bind at room temperature for 1 hour. After washing 3 times and then adding anti-human IgG-HRP diluted to 1:3,000 in TBS-T/BSA, as a secondary antibody, the antibody was allowed to bind at room temperature for 1 hour. After washing the resultant 3 times and adding TMB (SurModics, Cat. No. TMBC-1000-01), the mixture was allowed to develop color at room temperature for 5 minutes. Then, the color development was stopped by adding 1 N sulfuric acid (DukSan, Cat. No. 254). Absorbance was measured at 450 nm using Victor X3 (PerkinElmer, Cat. No. 2030-0030).

Assay [5] addresses T3, HER2-ECD DIII Fc (human, UniProt P04626 342-510, limits assumed).
T3 construct: domain: domain 3; also called domain 3 of the extracellular domains of the HER2 protein; not shown: Hinge and Fc region (CH2-CH3) of human IgG1, at the C-terminus
Described as above. The procedure: as §1

The target in assay [6] is T1, HER2-ECD-Fc. Put plainly: ELISA on HER2-ECD-Fc; antibody at 5 × 10^-5 µg/mL.
The target of assay [7] is T1, HER2-ECD-Fc. Put plainly: ELISA on HER2-ECD-Fc; antibody at 5 × 10^-7 µg/mL.
Assay [8] deals with T1, HER2-ECD-Fc. Put plainly: ELISA on HER2-ECD-Fc; antibody at 5 × 10^-2 µg/mL.
Assay [9] has as its target T1, HER2-ECD-Fc. Put plainly: ELISA on HER2-ECD-Fc; antibody at 5 × 10^-6 µg/mL.
Assay [10] concerns the target T4, EGFR-ECD-Fc (human, UniProt P00533 25-645).
T4 construct: extracellular domain; also called extracellular domain of EGFR; not shown: Hinge and Fc region (CH2-CH3) of human IgG1; The protein was produced in the same manner as HER2-ECD-Fc
Put plainly: ELISA on ErbB family extracellular domains, Absorbance at 450 nm; antibody concentration not given. From the text:
(§2) It was investigated whether the developed five antibodies of the present disclosure specifically bind to HER2 belonging to the ErbB family proteins by ELISA.

The target in assay [11] is T5, HER4 (R&D Systems, #1131-ER-050) (human, UniProt Q15303 26-651).
T5 construct: extracellular domain; Bought
T5 sequence (looked up): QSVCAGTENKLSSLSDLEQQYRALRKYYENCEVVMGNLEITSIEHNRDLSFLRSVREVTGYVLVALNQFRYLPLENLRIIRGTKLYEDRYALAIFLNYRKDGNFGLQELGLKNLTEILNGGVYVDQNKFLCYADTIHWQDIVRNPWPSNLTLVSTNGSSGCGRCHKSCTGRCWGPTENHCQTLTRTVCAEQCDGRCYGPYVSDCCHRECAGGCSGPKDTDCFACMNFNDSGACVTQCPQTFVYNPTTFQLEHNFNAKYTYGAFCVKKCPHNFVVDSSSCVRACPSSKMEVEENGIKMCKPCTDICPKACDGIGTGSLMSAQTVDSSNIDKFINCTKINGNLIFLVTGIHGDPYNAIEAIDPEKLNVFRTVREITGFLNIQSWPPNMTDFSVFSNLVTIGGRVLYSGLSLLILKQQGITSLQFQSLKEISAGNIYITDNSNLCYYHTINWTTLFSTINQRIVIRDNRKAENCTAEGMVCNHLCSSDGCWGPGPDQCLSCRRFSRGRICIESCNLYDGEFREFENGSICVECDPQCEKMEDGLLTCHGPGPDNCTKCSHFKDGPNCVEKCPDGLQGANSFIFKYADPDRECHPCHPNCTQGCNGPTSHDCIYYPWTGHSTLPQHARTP
The description is as above.
From the text: as §2

Assay [12] addresses T6, HER3 (R&D Systems, #348-RB-050) (human, UniProt P21860 20-643).
T6 construct: extracellular domain; Bought
The assay is described as above.
From the text: as §2

In assay [13] the target is T1, HER2-ECD-Fc. Put plainly: ELISA on HER2-ECD-Fc; antibody at 5 × 10^-4 µg/mL.
Assay [14] deals with T1, HER2-ECD-Fc. Put plainly: ELISA on HER2-ECD-Fc; antibody at 5 µg/mL.

B1: 1G3 (antibody, V domains shown)
VH: EVQLQQSGAELVKPGASVKLSCTASDFNIVDTYMHWVKQRPEQGLEWIGRIDPANGYTRYDPNFQGKATITADTSSNTAYLQLSSLTSEDTAVYYCARYYYGFYAMDYWGQGTTVTVSS
VL: DIVMTQSHKFMSTSVGDRVSITCKASQDVSTAVAWYQQKPGQSPKLLIYSASYRYTGVPDRFTGSGSGTDFTFTISSVQAEDLAVYYCQQHYSTPPTFGGGTKLELK
Take B1: the absorbance in assay [1] was 1.77; in [2] it was 2.76; in [3], 2.78; in assay [6], 0.14; in assay [7], 0.11; in assay [8], 2.79. Also, the absorbance came out at 0.11 in assay [9], 0.35 in assay [13] and 2.81 in assay [14]. In addition, the binding result in [4], in assay [5], in [10], in assay [11] and in assay [12] was “no binding” throughout.

B2: hz8G11 (antibody, V domains shown)
VH: QVQLVQSGQEVKKPGASVKVSCKASGYSFTGYYMHWVRQAPGQGLEWIGHINPNNGGTSYNQKFKGRTTLTVDKSISTAYMELSRLRSDDTAVYYCAREEAFAYWGQGTLVTVSS
VL: DIQMTQSPSSLSASVGDRVTISCRASQDISNYLNWYQQKPGKAPKLLIYYTSRLHSGVPSRFSGSGSGTDFSLTISSLQPEDIATYYCQQGITPPWTFGGGTKVEIK
notes: Humanized antibody, detected with anti-human IgG-HRP; also called humanized 8G11 antibody
For B2, the absorbance in assay [1] was 1.67; in assay [2], 2.74; in assay [3] it was 2.94; in assay [6] it was 0.14; in assay [7] it was 0.12; in assay [8] it was 2.72. Further, the results for the absorbance in [9], in [13] and in [14] were 0.12, 0.34 and 2.9, respectively. Moreover, the binding result in [4], in assay [5], in assay [10], in assay [11] and in assay [12] was “no binding” each time.
